How the values were obtained:
Assay in all cases: two-hybrid library CCmax;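 note: natural log of median RNA to DNA barcode read ratio; higher means stronger binding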
4H2078-AA = molecular target: T1, 4H2078-AA; settings: mean of both orientations
T1 chain: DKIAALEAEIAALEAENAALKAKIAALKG

4H2575-AA = molecular target: T2, 4H2575-AA; settings: mean of both orientations
T2 chain: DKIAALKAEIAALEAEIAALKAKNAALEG

4H1552-AA = molecular target: T3, 4H1552-AA; settings: mean of both orientations
T3 chain: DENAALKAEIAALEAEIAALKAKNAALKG

4H794-AA = molecular target: T4, 4H794-AA; settings: mean of both orientations
T4 chain: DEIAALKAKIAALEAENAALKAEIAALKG

4H780-AA = molecular target: T5, 4H780-AA; settings: mean of both orientations
T5 chain: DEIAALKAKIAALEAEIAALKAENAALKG

4H1352-AA = molecular target: T6, 4H1352-AA; settings: mean of both orientations
T6 chain: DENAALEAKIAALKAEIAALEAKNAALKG

4H1324-AA = molecular target: T7, 4H1324-AA; settings: mean of both orientations
T7 chain: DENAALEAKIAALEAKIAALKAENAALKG

4H2642-AA = molecular target: T8, 4H2642-AA; settings: mean of both orientations
T8 chain: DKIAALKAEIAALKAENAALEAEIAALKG

4H1153-AA = molecular target: T9, 4H1153-AA; settings: mean of both orientations
T9 chain: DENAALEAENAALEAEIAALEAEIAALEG

4H342-AA = molecular target: T10, 4H342-AA; settings: mean of both orientations
T10 chain: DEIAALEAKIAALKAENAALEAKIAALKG

4H2754-AA = molecular target: T11, 4H2754-AA; settings: mean of both orientations
T11 chain: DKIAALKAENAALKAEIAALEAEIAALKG

4H993-AA = molecular target: T12, 4H993-AA; settings: mean of both orientations
T12 chain: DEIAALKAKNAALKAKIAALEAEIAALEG

4H1867-AA = molecular target: T13, 4H1867-AA; settings: mean of both orientations
T13 chain: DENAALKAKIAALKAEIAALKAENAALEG

4H2505-AA = molecular target: T14, 4H2505-AA; settings: mean of both orientations
T14 chain: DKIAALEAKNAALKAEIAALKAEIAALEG

4H2944-AA = molecular target: T15, 4H2944-AA; settings: mean of both orientations
T15 chain: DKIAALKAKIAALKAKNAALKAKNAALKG

4H2190-AA = molecular target: T16, 4H2190-AA; settings: mean of both orientations
T16 chain: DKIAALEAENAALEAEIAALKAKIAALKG

4H906-AA = molecular target: T17, 4H906-AA; settings: mean of both orientations
T17 chain: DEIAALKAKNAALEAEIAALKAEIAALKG

4H234-AA = molecular target: T18, 4H234-AA; settings: mean of both orientations
T18 chain: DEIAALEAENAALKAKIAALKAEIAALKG

4H429-AA = molecular target: T19, 4H429-AA; settings: mean of both orientations
T19 chain: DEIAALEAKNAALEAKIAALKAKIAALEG

4H3844-AA = molecular target: T20, 4H3844-AA; settings: mean of both orientations
T20 chain: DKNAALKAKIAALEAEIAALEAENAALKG

4H122-AA = molecular target: T21, 4H122-AA; settings: mean of both orientations
T21 chain: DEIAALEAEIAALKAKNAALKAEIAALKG

4H2837-AA = molecular target: T22, 4H2837-AA; settings: mean of both orientations
T22 chain: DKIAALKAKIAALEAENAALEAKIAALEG

4H3112-AA = molecular target: T23, 4H3112-AA; settings: mean of both orientations
T23 chain: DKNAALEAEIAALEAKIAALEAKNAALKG

4H2466-AA = molecular target: T24, 4H2466-AA; settings: mean of both orientations
T24 chain: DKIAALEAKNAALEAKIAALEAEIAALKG

4H2393-AA = molecular target: T25, 4H2393-AA; settings: mean of both orientations
T25 chain: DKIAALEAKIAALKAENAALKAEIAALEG

4H3343-AA = molecular target: T26, 4H3343-AA; settings: mean of both orientations
T26 chain: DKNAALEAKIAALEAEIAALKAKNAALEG

4H454-AA = molecular target: T27, 4H454-AA; settings: mean of both orientations
T27 chain: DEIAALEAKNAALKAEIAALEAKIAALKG

4H3427-AA = molecular target: T28, 4H3427-AA; settings: mean of both orientations
T28 chain: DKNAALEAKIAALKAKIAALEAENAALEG

4H3627-AA = molecular target: T29, 4H3627-AA; settings: mean of both orientations
T29 chain: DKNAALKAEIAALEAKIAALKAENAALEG

4H881-AA = molecular target: T30, 4H881-AA; settings: mean of both orientations
T30 chain: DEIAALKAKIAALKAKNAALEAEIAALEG

4H3655-AA = molecular target: T31, 4H3655-AA; settings: mean of both orientations
T31 chain: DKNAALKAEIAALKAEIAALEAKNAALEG

4H2729-AA = molecular target: T32, 4H2729-AA; settings: mean of both orientations
T32 chain: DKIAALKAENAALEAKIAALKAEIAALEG

4H2165-AA = molecular target: T33, 4H2165-AA; settings: mean of both orientations
T33 chain: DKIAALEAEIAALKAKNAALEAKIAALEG

4H717-AA = molecular target: T34, 4H717-AA; settings: mean of both orientations
T34 chain: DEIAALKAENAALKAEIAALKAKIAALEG

4H605-AA = molecular target: T35, 4H605-AA; settings: mean of both orientations
T35 chain: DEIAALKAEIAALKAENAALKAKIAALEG

4H1636-AA = molecular target: T36, 4H1636-AA; settings: mean of both orientations
T36 chain: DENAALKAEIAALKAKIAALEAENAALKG

4H2354-AA = molecular target: T37, 4H2354-AA; settings: mean of both orientations
T37 chain: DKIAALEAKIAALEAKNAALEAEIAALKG

4H317-AA = molecular target: T38, 4H317-AA; settings: mean of both orientations
T38 chain: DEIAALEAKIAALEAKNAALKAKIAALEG

4H2949-AA = molecular target: T39, 4H2949-AA; settings: mean of both orientations
T39 chain: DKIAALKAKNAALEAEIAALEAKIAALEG

4H2277-AA = molecular target: T40, 4H2277-AA
T40 chain: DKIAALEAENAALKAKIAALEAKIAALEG

4H566-AA = molecular target: T41, 4H566-AA; settings: mean of both orientations
T41 chain: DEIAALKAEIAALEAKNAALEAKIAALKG

4H335-AA = molecular target: T42, 4H335-AA; settings: mean of both orientations
T42 chain: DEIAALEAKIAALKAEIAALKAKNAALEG

4H1086-AA = molecular target: T43, 4H1086-AA
T43 chain: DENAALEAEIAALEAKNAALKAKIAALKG

4H3921-AA = molecular target: T44, 4H3921-AA; settings: mean of both orientations
T44 chain: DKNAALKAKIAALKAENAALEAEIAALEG

4H2617-AA = molecular target: T45, 4H2617-AA; settings: mean of both orientations
T45 chain: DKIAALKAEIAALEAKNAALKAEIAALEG

4H678-AA = molecular target: T46, 4H678-AA; settings: mean of both orientations
T46 chain: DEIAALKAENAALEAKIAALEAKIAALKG

4H1135-AA = molecular target: T47, 4H1135-AA; settings: mean of both orientations
T47 chain: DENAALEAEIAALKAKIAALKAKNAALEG

- interaction score (4H2078-AA): -1.42
- interaction score (4H2575-AA): 0.522
- interaction score (4H1552-AA): -0.495
- interaction score (4H794-AA): -0.327
- interaction score (4H780-AA): -1.37
- interaction score (4H1352-AA): -0.965
- interaction score (4H1324-AA): -0.552
- interaction score (4H2642-AA): 1.79
- interaction score (4H1153-AA): -0.756
- interaction score (4H342-AA): 1.88
- interaction score (4H2754-AA): 0.514
- interaction score (4H993-AA): -0.479
- interaction score (4H1867-AA): -1.02
- interaction score (4H2505-AA): -1.28
- interaction score (4H2944-AA): -1.29
- interaction score (4H2190-AA): 1.78
- interaction score (4H906-AA): -1.8
- interaction score (4H234-AA): -1.17
- interaction score (4H429-AA): 0.612
- interaction score (4H3844-AA): -0.082
- interaction score (4H122-AA): -0.74
- interaction score (4H2837-AA): 2.25
- interaction score (4H3112-AA): -1.57
- interaction score (4H2466-AA): -1.65
- interaction score (4H2393-AA): 1.89
- interaction score (4H3343-AA): -1.72
- interaction score (4H454-AA): -0.949
- interaction score (4H3427-AA): -0.568
- interaction score (4H3627-AA): -0.932
- interaction score (4H881-AA): 1.89
- interaction score (4H3655-AA): -0.935
- interaction score (4H2729-AA): 1.34
- interaction score (4H2165-AA): -1.24
- interaction score (4H717-AA): -1.78
- interaction score (4H605-AA): -0.771
- interaction score (4H1636-AA): -1.62
- interaction score (4H2354-AA): -0.946
- interaction score (4H317-AA): -0.992
- interaction score (4H2949-AA): 0.739
- interaction score (4H2277-AA): -2.16
- interaction score (4H566-AA): -0.902
- interaction score (4H335-AA): -1.27
- interaction score (4H1086-AA): -1.1
- interaction score (4H3921-AA): 2.16
- interaction score (4H2617-AA): 0.841
- interaction score (4H678-AA): -0.364
- interaction score (4H1135-AA): -0.938
Binder: DENAALEAEIAALEAKNAALKAKIAALKG [4H1086-AA]
